Test results taken from US20160122430A1 (AbbVie / Abbott, published 2016).

B1: CS1.AD159.27A12 (antibody, V domains shown)
VH: EVKLVESEGGLVQPGSSMKLSCTASGFTFSDYYMAWVRQVPEKGLEWVAEINYDGSSTYYLDSLKSRFIISRDNAKNILYLQMSNLKSEDTATYYCARDRGFYFDYWGQGTTLTVSS
VL: DVVMTQTPLSLPVSLGDQASISCRSSQSLVHNNGNTYLHWYLQKPGQSPKLLIYKVSNRFSGVPDRFSGSGSGTDFTLKISRVEAEDLGVYFCSQSTHVPPYTFGGGTKLEIK
notes: Murine hybridoma antibody; also called Mu27A12
B2: Hu34C3 S55E (antibody, V domains shown)
VH: EVQLVESGGGLVQPGGSLRLSCAASGFTFSDYYMAWVRQAPGKGLEWVASINYDGESTYYVDSVKGRFTISRDNAKNSLYLQMNSLRAEDTAVYYCARDRGYYFDYWGQGTTVTVSS
VL: DVVMTQTPLSLSVTPGQPASISCRSSQSLVHSNGNTYLHWYLQKPGQSPQLLIYKVSNRFSGVPDRFSGSGSGTDFTLKISRVEAEDVGVYFCSQSTHVPPFTFGGGTKVEIK
B3: HuCS1.27A12 (antibody, V domains shown)
VH: EVQLVESGGGLVQPGGSLRLSCAASGFTFSDYYMAWVRQAPGKGLEWVAEINYDGSSTYYVDSVKGRFTISRDNAKNSLYLQMNSLRAEDTAVYYCARDRGFYFDYWGQGTTVTVSS
VL: DVVMTQTPLSLSVTPGQPASISCRSSQSLVHNNGNTYLHWYLQKPGQSPQLLIYKVSNRFSGVPDRFSGSGSGTDFTLKISRVEAEDVGVYFCSQSTHVPPYTFGGGTKVEIK
notes: Humanized antibody; It has a human Fc (detected with anti-human Fc); also called Hu27A12
B4: CS1.AD159.31D2 (antibody, V domains shown)
VH: EVKLVESEGGLVQPGSSMKLSCTASGFTFSDYYMAWVRQVPEKGLEWVADINYDGGSTYYLDSLKSRFIISRDNAKNILCLQMSSLKSEDTATYYCARDRGYYFDYWGQGTTLTVSS
VL: DVVMTQTPLSLPVSLGDQASISCRSSQSLVHSNGNTYLHWYLQKPGQSPKLLIYKVSNRFSGVPDRFSGSGSGTDFTLKISRVEAEDLGVYFCSQSTHVPPFTFGGGTKLEIK
notes: Murine hybridoma antibody; also called Mu31D2
B5: Hu34C3 N30L (antibody, V domains shown)
VH: EVQLVESGGGLVQPGGSLRLSCAASGFTFSDYYMAWVRQAPGKGLEWVASINYDGSSTYYVDSVKGRFTISRDNAKNSLYLQMNSLRAEDTAVYYCARDRGYYFDYWGQGTTVTVSS
VL: DVVMTQTPLSLSVTPGQPASISCRSSQSLVHSNGLTYLHWYLQKPGQSPQLLIYKVSNRFSGVPDRFSGSGSGTDFTLKISRVEAEDVGVYFCSQSTHVPPFTFGGGTKVEIK
B6: Hu34C3 S55E/N30L (antibody, V domains shown)
VH: EVQLVESGGGLVQPGGSLRLSCAASGFTFSDYYMAWVRQAPGKGLEWVASINYDGESTYYVDSVKGRFTISRDNAKNSLYLQMNSLRAEDTAVYYCARDRGYYFDYWGQGTTVTVSS
VL: DVVMTQTPLSLSVTPGQPASISCRSSQSLVHSNGLTYLHWYLQKPGQSPQLLIYKVSNRFSGVPDRFSGSGSGTDFTLKISRVEAEDVGVYFCSQSTHVPPFTFGGGTKVEIK
notes: Double mutant of Hu34C3
B7: HuCS1.31D2.2 (antibody, V domains shown)
VH: EVQLVESGGGLVQPGGSLRLSCAASGFTFSDYYMAWVRQAPGKGLEWVADINYDGGSTYYLDSLKSRFTISRDNAKNSLYLQMNSLRAEDTAVYYCARDRGYYFDYWGQGTLVTVSS
VL: DVVMTQSPLSLPVTPGEPASISCRSSQSLVHSNGNTYLHWYLQKPGQSPQLLIYKVSNRFSGVPDRFSGSGSGTDFTLKISRVEAEDVGVYFCSQSTHVPPFTFGGGTKVEIK
notes: Humanized antibody; It has a human Fc (detected with anti-human Fc); also called Hu31D2
B8: CS1.AD159.14C11 (antibody, V domains shown)
VH: EVKLVESEGGLVQPGSSMKLSCTASGFTFSDYYMAWVRQVPEKGLEWVASINYDGSSTYYLDSLKSRFIISRDNAKNILYLQMSGLKSEDTATYSCARDRGFYFDYWGQGTTLTVSS
VL: DVVMTQTPLSLPVSLGDQASISCRSSQSLVHRNGNTYLHWYLQKPGQSPKLLIYKVSNRFSGVPDRFSGSGSGTDFTLKISRVEAEDLGVYFCSQSTHVPPYTFGGGTKLEIK
notes: Murine hybridoma antibody; also called Mu14C11
B9: CS1.AD159.12D10 (antibody, V domains shown)
VH: EVKLVESEGGLVQPGSSMKLSCTASGFTFSDYFMAWVRQVPEKGLEWVASINYDGNSTYFLDSLKSRFIISRDNAKNILYLQMSSLKSEDTATYYCARDRGFYFDYWGQGTTLTVSS
VL: DVVMTQTPLSLPVSLGDQASISCRFSQSLVHRNGNTYLHWYLQKPGQSPKLLIYKVSNRFSGVPDRFSGSGSGTDFTLKISRVEAEDLGVYFCSQSTHVRPYTFGGGTKLEIR
notes: Murine hybridoma antibody; also called Mu12D10
B10: CS1.AD159.34C3 (antibody, V domains shown)
VH: EVKLVESEGGLVQPGSSMKLSCTASGFTFSDYYMAWVRQVPEKGLEWVASINYDGSSTYYLDSLKSRFIISRDNAKNILFLQMNSLKSEDTATYYCARDRGYYFDYWGQGTTLTVSS
VL: DVVMTQTPLSLPVSLGDQASISCRSSQSLVHSNGNTYLHWYLQKPGQSPKLLIYKVSNRFSGVPDRFSGSGSGTDFTLKISRVEAEDLGVYFCSQSTHVPPFTFGGGTKLEIK
notes: Murine hybridoma antibody; also called Mu34C3
B11: elotuzumab (antibody, IgG1, V domains shown)
VH: EVQLVESGGGLVQPGGSLRLSCAASGFDFSRYWMSWVRQAPGKGLEWIGEINPDSSTINYAPSLKDKFIISRDNAKNSLYLQMNSLRAEDTAVYYCARPDGNYWYFDVWGQGTLVTVSS
VL: DIQMTQSPSSLSASVGDRVTITCKASQDVGIAVAWYQQKPGKVPKLLIYWASTRHTGVPDRFSGSGSGTDFTLTISSLQPEDVATYYCQQYSSYPYTFGQGTKVEIKR
notes: also called HuLuc63
B12: HuCS1.34C3 (antibody, human IgG1, kappa, V domains shown)
VH: EVQLVESGGGLVQPGGSLRLSCAASGFTFSDYYMAWVRQAPGKGLEWVASINYDGSSTYYVDSVKGRFTISRDNAKNSLYLQMNSLRAEDTAVYYCARDRGYYFDYWGQGTTVTVSS
VL: DVVMTQTPLSLSVTPGQPASISCRSSQSLVHSNGNTYLHWYLQKPGQSPQLLIYKVSNRFSGVPDRFSGSGSGTDFTLKISRVEAEDVGVYFCSQSTHVPPFTFGGGTKVEIKR
notes: Humanized IgG1; also called Hu34C3

How the values were obtained:
human CS1 ECD-huIgG1 = target: T1, human CS1 ECD-huIgG1 (human, UniProt Q9NQ25 23-226); assay: hybridoma screen of Example 1 (ELISA on ECD-huIgG1 fusions, flow cytometry on OPM-2 cells); member named in Table 5
T1 construct: Its preparation is not described; also called HuCS1Fc; HuCS1-Fc; not shown: constant region of human IgG1 (huIgG1 Fc)
Description: Specificity of antibodies secreted by hybridomas was determined by binding to human CS1 ECD-huIgG1 and CmCS1 ECD-huIgG1, and not to negative control CLL1 ECD-huIgG1 by ELISA. […] Hybridoma supernatants were allowed to bind to the proteins and detected with an HRP conjugated donkey anti mouse IgG (H+L) antibody. Hybridomas that recognized both human and cynomolgus but not CLL fusion proteins were further tested for binding to the huCS1 molecule on an endogenously expressing OPM-2 cells using standard flow cytometry protocols. Briefly, OPM-2 cells were incubated with hybridoma supernatants for 30 minutes on ice. After extensive washing, cells were incubated with phycoerythrin conjugated goat anti mouse IgG specific antibodies for 30 minutes on ice. Cells were washed again and analyzed on a Becton Dickinson FACSCalibur for the presence of cell surface bound antibodies.

human CS1 (HuCS1) [1] = target: T2, human CS1 (HuCS1) (human, UniProt Q9NQ25 23-335); assay: FACS, binding relative to Hu34C3; cells not given
T2 construct: also called FL-HuCS1; SLAMF7

human CS1 (HuCS1) [2] = target: T2, human CS1 (HuCS1); assay: flow cytometry on L-363 cells; GeoMean (max) relative to elotuzumab
Description: (§1) L-363 cells were incubated with different amounts of test antibody on ice for 30 min. Cells were washed three times with PBS+1% FBS. A PE-conjugated goat anti-human Fc antibody was added to the cells and incubated for 30 min on ice. Cells were washed three times with PBS+1% FBS, and binding was quantitated by flow cytometry.

human CS1 (HuCS1) [3] = target: T2, human CS1 (HuCS1); assay: flow cytometry on L-363 cells; maximum fluorescent value at any tested concentration
Description: as §1

human CS1 (HuCS1) [4] = target: T2, human CS1 (HuCS1); assay: flow cytometry on L-363 cells, PE goat anti-human Fc detection
Description: as §1

human CS1 (HuCS1) [5] = target: T2, human CS1 (HuCS1); assay: flow cytometry on 293s cells transfected with human CS1

| Binder | binding result (human CS1 ECD-huIgG1) | % of Elotuzumab (human CS1 (HuCS1) [2]) [%] | GeoMean (max) (human CS1 (HuCS1) [3]) | EC50 (human CS1 (HuCS1) [4]) [nM] | further results |
| --- | --- | --- | --- | --- | --- |
| B1 | binds | – | – | – | – |
| B2 | – | – | – | – | % Binding (human CS1 (HuCS1) [1]): 125% |
| B3 | – | 142 | 24.8 | 4.7 | – |
| B4 | binds | – | – | – | – |
| B5 | – | – | – | – | % Binding (human CS1 (HuCS1) [1]): 128% |
| B6 | – | – | – | – | % Binding (human CS1 (HuCS1) [1]): 134% |
| B7 | – | 160 | 28 | 3.1 | – |
| B8 | binds | – | – | – | – |
| B9 | binds | – | – | – | – |
| B10 | binds | – | – | – | – |
| B11 | – | 100 | 17.5 | 35.9 | – |
| B12 | – | 249 | 43.5 | 2.5 | concentration at which 80% of maximal binding occurred (human CS1 (HuCS1) [5]): 10 µg/mL |
